Assay results: PMC9290910, “Neuropilin‐1 is required for endothelial cell adhesion to soluble vascular endothelial growth factor receptor 1” (The Febs Journal, 2021)

Tests used:
NRP‐1 = experiment: SPR, VEGFR‐1 binding to immobilized NRP‐1; design: species or system human; conditions: NRP‐1 immobilized, VEGFR‐1 0.6-5 nM, 1:1 Langmuir model
Description: Fig. 2 Flt2‐11 peptide inhibits NRP‐1 binding to VEGFR‐1. SPR analysis of the interaction between VEGFR‐1 and NRP‐1 in peptide absence (A), or presence of Flt2‐11 peptide (B) or scrambled Flt2‐11 peptide (C). NRP‐1 is immobilized on the sensor chip. (A) VEGFR‐1 is injected at different concentrations (from bottom to top: 0.6 nM, cyan; 1 nM, red; 2 nM, green; 2.5 nM, blue; and 5 nM, black). […] (B) VEGFR‐1 is injected at 5 nM together with peptide Flt2‐11 at different concentrations (from top to bottom: 0, black; 5 nM, blue; 15 nM, green; 45 nM, red; 100 nM, cyan; and 800 nM, magenta). […] (C) VEGFR‐1 is injected at 5 nM together with ‘scrambled’ Flt2‐11 peptide at different concentrations (from top to bottom: 0, black; 0.5 μM, blue; 950 μM, geen; and […], red).
SPR experiments were carried out using a BIACORE X system (Biacore AB, Uppsala, Sweden). […] The reaction was carried out in 20 mM sodium acetate at pH 5.0, which is about 2 points below the theoretical NRP‐1 isoelectric point calculated using the program pI‐tool. […]
RU express the mass concentration‐dependent changes in the observed SPR signal, that is, the refractive index on the sensor chip surface. Changes in this signal are determined by the interaction between the immobilized protein (i.e., either NRP‐1 or VEGFR‐1) with the analyte protein (i.e., VEGFR‐1/Fc, α5β1 integrin or semaphorin 3A). […]

[1] = tested on: α5β1 integrin signalling in ECs; design: method as in PMID 24174428; conditions: phosphorylation of focal adhesion kinase or Shc; cited from earlier work

B1: VEGFR‐1: Recombinant human VEGFR‐1/Fc (321‐FL‐050), R&D Systems (protein)
chain: SKLKDPELSLKGTQHIMQAGQTLHLQCRGEAAHKWSLPEMVSKESERLSITKSACGRNGKQFCSTLTLNTAQANHTGFYSCKYLAVPTSKKKETESAIYIFISDTGRPFVEMYSEIPEIIHMTEGRELVIPCRVTSPNITVTLKKFPLDTLIPDGKRIIWDSRKGFIISNATYKEIGLLTCEATVNGHLYKTNYLTHRQTNTIIDVQISTPRPVKLLRGHTLVLNCTATTPLNTRVQMTWSYPDEKNKRASVRRRIDQSNSHANIFYSVLTIDKMQNKDKGLYTCRVRSGPSFKSVNTSVHIYDKAFITVKHRKQQVLETVAGKRSYRLSMKVKAFPSPEVVWLKDGLPATEKSARYLTRGYSLIIKDVTEEDAGNYTILLSIKQSNVFKNLTATLIVNVKPQIYEKAVSSFPDPALYPLGSRQILTCTAYGIPQPTIKWFWHPCNHNHSEARCDFCSNNEESFILDADSNMGNRIESITQRMAIIEGKNKMASTLVVADSRISGIYICIASNKVGTVGRNISFYITDVPNGFHVNLEKMPTEGEDLKLSCTVNKFLYRDVTWILLRTVNNRTMHYSISKQKMAITKEHSITLNLTIMNVSLQDSGTYACRARNVYTGEEILQKKEITIRDQEAPYLLRNLSDHTVAISSSTTLDCHANGVPEPQITWFKNNHKIQQEPGIILGPGSSTLFIERVTEEDEGVYHCKATNQKGSVESSAYLTVQGTSDKSNLE
modifications: left off: Fc, end not stated, kept
notes: Recombinant human VEGFR‐1/Fc (321‐FL‐050), R&D Systems
NRP‐1
  k off: 0.0003 s⁻¹
  k on: 12000 M⁻¹ s⁻¹
[1]
  activation of canonical α5β1 integrin signalling by EC adhesion to sVEGFR‐1: does not activate canonical α5β1 integrin signalling
